Data set [1] deals with T1, library peptide Leu-Leu-Val-Ala-Ala-Ala (negative control).
T1 sequence: LLVAAA

Data set [2] has as its system T2, TAS1 (Rh-based peptide/peptoid hybrid probe, Leu-Leu-Val-Tyr-Rh110-peptoid).
T2 sequence: LLVY

B1: 20S core particle (20S CP) of the proteasome, purified (enzyme, part only; not given: other 20S alpha and beta subunits)
chain: TTTLAFKFRHGVIVAADSRATAGAYIASQTVKKVIEINPYLLGTMAGGAADCSFWERLLARQCRIYELRNKERISVAAASKLLANMVYQYKGMGLSMGTMICGWDKRGPGLYYVDSEGNRISGATFSVGSGSVYAYGVMDRGYSYDLEVEQAYDLARRAIYQATYRDAYSGGAVNLYHVREDGWIRVSSDNVADLHEKYSGSTP
B1: the “percent cleavage by LC/MS, 12 µM peptide with 9 nM 20S CP for one hour” value in data set [1] is “less than 10% of the peptide cleaved”. For the same protein, in data set [2], the Rate of Hydrolysis (ΔRFU/min), probe at 30 µM with purified 20S CP was 83.2 ΔRFU/min.

The values are drawn from patent US20230108494.
